Activity data for two sequences are collected here from patent US20240011005A1 (HUIDAGENE THERAPEUTICS, published 2024).

Numbering of substitutions follows the chain as printed.

What all share (assay): cell_activity
The subject of data set [1] is T1, OsCas12f1-D52R (Oscillibacter sp.).
T1 sequence: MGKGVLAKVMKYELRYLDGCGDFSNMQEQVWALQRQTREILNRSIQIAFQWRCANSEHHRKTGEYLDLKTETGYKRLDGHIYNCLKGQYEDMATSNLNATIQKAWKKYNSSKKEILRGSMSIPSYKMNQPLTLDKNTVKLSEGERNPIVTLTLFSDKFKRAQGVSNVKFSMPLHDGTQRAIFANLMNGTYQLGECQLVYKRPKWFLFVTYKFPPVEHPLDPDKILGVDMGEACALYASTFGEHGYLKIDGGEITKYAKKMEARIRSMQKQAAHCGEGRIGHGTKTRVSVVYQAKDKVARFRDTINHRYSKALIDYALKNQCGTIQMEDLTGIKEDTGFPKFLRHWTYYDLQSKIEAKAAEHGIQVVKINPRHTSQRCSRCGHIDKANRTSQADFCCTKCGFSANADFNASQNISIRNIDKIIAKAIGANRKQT
The settings on record: PAM TTTC; 1.31-fold in text.

For data set [2], the system named is T2, OsCas12f1-S119R S119R (Oscillibacter sp.).
T2 sequence: T1 sequence with R52D, S119R
To be noted: PAM TTTC.

For data set [3], the system named is T3, OsCas12f1-S141R S141R (Oscillibacter sp.).
T3 sequence: T1 sequence with R52D, S141R
To be noted: PAM TTTC.

The test system of data set [4] is T4, OsCas12f1-T132R T132R (Oscillibacter sp.).
T4 sequence: T1 sequence with R52D, T132R
To be noted: PAM TTTC.

For data set [5], the system named is T5, OsCas12f1 (ME-B.3) (Oscillibacter sp.).
T5 sequence: T1 sequence with R52D
To be noted: PAM TTTC, HEK293T.

In data set [6] the test system is T6, OsCas12f1-A54R A54R (Oscillibacter sp.).
T6 sequence: T1 sequence with R52D, A54R
To be noted: PAM TTTC.

In data set [7] the target is T7, Un1Cas12f1_ge4.1 (Uncultured bacterium) (UniProt A0A482D308).
T7 sequence: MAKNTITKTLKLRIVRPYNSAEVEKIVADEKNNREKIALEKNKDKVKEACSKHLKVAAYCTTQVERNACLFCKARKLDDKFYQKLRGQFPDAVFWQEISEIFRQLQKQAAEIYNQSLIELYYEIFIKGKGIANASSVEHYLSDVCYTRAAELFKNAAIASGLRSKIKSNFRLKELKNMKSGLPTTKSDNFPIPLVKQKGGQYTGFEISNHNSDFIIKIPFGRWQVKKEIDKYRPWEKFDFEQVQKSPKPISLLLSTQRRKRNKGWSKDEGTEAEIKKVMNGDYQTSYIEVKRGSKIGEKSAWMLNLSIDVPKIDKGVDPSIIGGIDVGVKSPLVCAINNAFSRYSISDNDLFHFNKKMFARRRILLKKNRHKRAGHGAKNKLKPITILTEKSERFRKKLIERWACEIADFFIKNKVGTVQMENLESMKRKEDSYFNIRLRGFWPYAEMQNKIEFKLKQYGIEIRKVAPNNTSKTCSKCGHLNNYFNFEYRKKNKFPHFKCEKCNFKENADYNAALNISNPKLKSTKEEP
The settings on record: PAM TTTG per Table 1; 36.1 in Rh screen.

Take “AGGGACGACUUCCCGUCCCAAAAUCGAGACAGUAGCCGUAAAACUUUGAGUUUCAGAGUGGGCGACACACUCGAAAAGGUUAAGAUAUGCACAUAGUAAUCCGUGCAUGAGCCGCGAAAGCGGCUUGAAGGCCAUUACAGUAGGAGCAUACUUUUAUUUUUUU / TTTCCCATTACAGTAGGAGCATACGGG / CCCGTATGCTCCTACTGTAATGGGAAA”: the activity was 52.8 % GFP+ in data set [1]; 46.3 % GFP+ in data set [2]; 46.6 % GFP+ in data set [3]; 48.4 % GFP+ in data set [4]; 38.7 % GFP+ in data set [5]; 45.5 % GFP+ in data set [6].

“ACCGCUUCACUUAGAGUGAAGGUGGGCUGCUUGCAUCAGCCUAAUGUCGAGAAGUGCUUUCUUCGGAAAGUAACCCUCGAAACAAAGAAAGGAAUGCAACCCAUUACAGUAGGAGCAUACUUUUAUUUUUUU / TTTGCCATTACAGTAGGAGCATAC / GTATGCTCCTACTGTAATGGCAAA [Un1Cas12f1_ge4.1 sgRNA ; reporter insertion, TTTG PAM]” displayed an activity in data set [7] of 36.5 % GFP+.
